Article PMC6370319 (Cell reports, 2019)

T1: OGT-FLAG (human, UniProt O15294-3 1-1036)
T1 sequence: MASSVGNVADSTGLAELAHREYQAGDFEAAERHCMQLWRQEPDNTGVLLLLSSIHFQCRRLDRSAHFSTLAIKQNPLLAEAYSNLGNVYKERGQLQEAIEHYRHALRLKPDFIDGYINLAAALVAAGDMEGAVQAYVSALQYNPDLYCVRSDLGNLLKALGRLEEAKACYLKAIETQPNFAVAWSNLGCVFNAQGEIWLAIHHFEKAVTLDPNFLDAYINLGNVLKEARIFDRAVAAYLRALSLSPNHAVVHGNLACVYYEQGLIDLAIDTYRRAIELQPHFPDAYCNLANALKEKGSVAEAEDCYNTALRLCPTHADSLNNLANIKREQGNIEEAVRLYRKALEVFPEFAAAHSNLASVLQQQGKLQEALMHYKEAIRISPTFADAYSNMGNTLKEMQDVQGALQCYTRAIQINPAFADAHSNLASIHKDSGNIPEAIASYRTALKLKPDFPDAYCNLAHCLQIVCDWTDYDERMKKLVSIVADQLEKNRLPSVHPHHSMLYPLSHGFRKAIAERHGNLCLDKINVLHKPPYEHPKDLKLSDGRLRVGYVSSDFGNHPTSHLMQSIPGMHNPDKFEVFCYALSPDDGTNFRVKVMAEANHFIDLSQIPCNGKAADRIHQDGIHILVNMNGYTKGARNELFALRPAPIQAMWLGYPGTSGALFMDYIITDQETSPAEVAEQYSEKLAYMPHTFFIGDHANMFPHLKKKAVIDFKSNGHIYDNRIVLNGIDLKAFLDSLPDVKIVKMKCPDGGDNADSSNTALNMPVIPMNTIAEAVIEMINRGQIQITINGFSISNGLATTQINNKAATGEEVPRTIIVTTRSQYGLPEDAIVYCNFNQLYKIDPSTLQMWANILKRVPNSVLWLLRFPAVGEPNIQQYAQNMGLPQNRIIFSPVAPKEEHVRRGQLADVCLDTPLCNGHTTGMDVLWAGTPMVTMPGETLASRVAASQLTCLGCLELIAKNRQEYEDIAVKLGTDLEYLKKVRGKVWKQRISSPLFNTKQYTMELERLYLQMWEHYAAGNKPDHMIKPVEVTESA

B1: FNIP1-D-His6 (domain or fragment)
chain: TEWDIPRNESSDSALGDSESEDTGHDMTRQVSSYYGGEQEDWAEEDEIPFPGSKLIEVSAVQPNIANFGRSLLGGYCSSYVPDFVLQGIGSDERFRQCLMSDLSHAVQHPVLDEPIAEAVCIIADMDKWTVQVASSQRRVTDNKLGKEVLVSSLVSNLLHSTLQLYKHNLSPNFCVMHLEDRLQELYFKSKMLSEYLRGQMRVHVKELGVVLGIESSDLPLLAAVASTHSPYVAQILL
B2: FNIP1-D-His6 S941A (domain or fragment)
chain: TEWDIPRNESSDAALGDSESEDTGHDMTRQVSSYYGGEQEDWAEEDEIPFPGSKLIEVSAVQPNIANFGRSLLGGYCSSYVPDFVLQGIGSDERFRQCLMSDLSHAVQHPVLDEPIAEAVCIIADMDKWTVQVASSQRRVTDNKLGKEVLVSSLVSNLLHSTLQLYKHNLSPNFCVMHLEDRLQELYFKSKMLSEYLRGQMRVHVKELGVVLGIESSDLPLLAAVASTHSPYVAQILL
B3: FNIP1-D-His6 S948A (domain or fragment)
chain: TEWDIPRNESSDSALGDSEAEDTGHDMTRQVSSYYGGEQEDWAEEDEIPFPGSKLIEVSAVQPNIANFGRSLLGGYCSSYVPDFVLQGIGSDERFRQCLMSDLSHAVQHPVLDEPIAEAVCIIADMDKWTVQVASSQRRVTDNKLGKEVLVSSLVSNLLHSTLQLYKHNLSPNFCVMHLEDRLQELYFKSKMLSEYLRGQMRVHVKELGVVLGIESSDLPLLAAVASTHSPYVAQILL
B4: FNIP1-D-His6 S938A (domain or fragment)
chain: TEWDIPRNEASDSALGDSESEDTGHDMTRQVSSYYGGEQEDWAEEDEIPFPGSKLIEVSAVQPNIANFGRSLLGGYCSSYVPDFVLQGIGSDERFRQCLMSDLSHAVQHPVLDEPIAEAVCIIADMDKWTVQVASSQRRVTDNKLGKEVLVSSLVSNLLHSTLQLYKHNLSPNFCVMHLEDRLQELYFKSKMLSEYLRGQMRVHVKELGVVLGIESSDLPLLAAVASTHSPYVAQILL
B5: FNIP1-D-His6 S939A (domain or fragment)
chain: TEWDIPRNESADSALGDSESEDTGHDMTRQVSSYYGGEQEDWAEEDEIPFPGSKLIEVSAVQPNIANFGRSLLGGYCSSYVPDFVLQGIGSDERFRQCLMSDLSHAVQHPVLDEPIAEAVCIIADMDKWTVQVASSQRRVTDNKLGKEVLVSSLVSNLLHSTLQLYKHNLSPNFCVMHLEDRLQELYFKSKMLSEYLRGQMRVHVKELGVVLGIESSDLPLLAAVASTHSPYVAQILL
B6: FNIP1-D-His6 S946A (domain or fragment)
chain: TEWDIPRNESSDSALGDAESEDTGHDMTRQVSSYYGGEQEDWAEEDEIPFPGSKLIEVSAVQPNIANFGRSLLGGYCSSYVPDFVLQGIGSDERFRQCLMSDLSHAVQHPVLDEPIAEAVCIIADMDKWTVQVASSQRRVTDNKLGKEVLVSSLVSNLLHSTLQLYKHNLSPNFCVMHLEDRLQELYFKSKMLSEYLRGQMRVHVKELGVVLGIESSDLPLLAAVASTHSPYVAQILL

Target: Hsp90α (UniProt P07900)
Assay: FNIP1-FLAG IP from yeast, Hsp90α blot
Conditions: reference: wild type FNIP1-FLAG; sites S948

Question: For FNIP1 (from UniProt Q8TF40) S948A, which “binding against the reference” value is on record?
Answer: weaker

Target: T1, OGT-FLAG
Assay: pull-down
Conditions: not given

Question: Does B1 bind?
Answer: binds

Question: Does B2 bind?
Answer: binds

Question: Does B3 bind?
Answer: binds

Question: Does B4 bind?
Answer: binds

Question: Does B5 bind?
Answer: binds

Question: Does B6 bind?
Answer: binds
